According to patent US20250352624A1, “SUPEROXIDE DISMUTASE AND USES THEREOF FOR PREVENTING OR TREATING DRY EYE SYNDROME” (GENOFOCUS, INC., priority 2021, published 2025):

Assays:
Type in all cases: in vivo
[1] = system: experimental dry eye (EDE)-induced C57BL/6 mouse model; assay: Malondialdehyde (MDA) by ELISA in cornea, conjunctiva and lacrimal gland; details: for MDA efficacy as compared with 0.05% CsA: 10 mg/kg oral
Description: (§1) To induce experimental dry eye, 7- to 8-week-old C57BL/6 mice (purchased from Damool Science) were injected subcutaneously with scopolamine hydrochloride at 0.5 mg/0.2 ml three times a day under exposure to a ventilating device for 18 hours a day. The humidity was maintained at 30%, and the temperature was maintained at 25° C. The C57BL/6 mice were classified into 7 groups, depending on concentrations of the oral drug to be administered, as shown in Table 6.
(§2) After inducing experimental dry eye in the experimental mice, the drugs prepared in Example 3 were orally administered at 2 μL per dose once a day to the treatment groups (administered at 13:30 every day). In both eyes of all mice, at baseline, day 5, and day 10, tear volume and tear film break-up time were measured and corneal fluorescent staining score was examined. The mice were then sacrificed and tissue analysis was performed. Each group consisted of 6 animals.
The corneas, conjunctivas, and lacrimal glands were excised from both eyes (6 eyes) of 3 animals in each group required for tissue analysis. The samples were homogenized in PBS, and then the lysates were centrifuged at 10000×g for 10 minutes at 4° C. The supernatant was taken and the total amount of protein was measured using the Bradford assay. MDA was detected using an ELISA (Enzyme-linked immunosorbent assay) kit (manufactured by Quantikine, R&D Systems, Minneapolis, MN) containing capture and detection antibodies according to the manufacturer's manual. Using ELISA, MDA levels in the cornea, conjunctiva, and lacrimal gland were measured and recorded, respectively.

[2] = system: experimental dry eye (EDE)-induced C57BL/6 mouse model; assay: CD4+IFN-γ+ T cells by flow cytometry
Description: as §1, §2
The cornea, conjunctiva, and lacrimal gland were excised, sectioned with scissors, and then shaken with 0.5 mg/mL of collagenase type D (manufactured by Roche Applied Science, Indianapolis, IN, USA) at 37° C. for 60 minutes. The tissue was ground and then allowed to pass through a cell strainer, followed by centrifugation. The number of CD4+IFN-γ+T cells was calculated by performing flow cytometry with fluorescein-conjugated anti-CD4 antibody and phycoerythrin-conjugated anti-IFN-γ antibody, and the number of DCF-DA cells was calculated using the CM-H2DCFDA kit (manufactured by Thermo Fisher Scientific, Waltham, MA, USA).

[3] = system: experimental dry eye (EDE)-induced C57BL/6 mouse model; assay: Tear film break-up time in experimental dry eye mice
Description: as §1, §2
To evaluate tear film stability, which is known to be the most important clinical factor in dry eye, tear film break-up time was measured. 1 μl of 1% fluorescent dye (fluorescein) was instilled into the lower conjunctival sac of each mouse, and then each mouse was allowed to blink about three times. Subsequently, the eyes were gently made open, and then the time (seconds) until the first defect occurred in the stained tear film was measured using a slit lamp microscope equipped with a cobalt blue filter. This was repeated three times to obtain the average value.

[4] = conjunctiva, 2.5 mg/kg oral once a day
[5] = conjunctiva, 5 mg/kg oral once a day
[6] = conjunctiva, 10 mg/kg oral once a day
[7] = cornea, 2.5 mg/kg oral once a day
[8] = cornea, 5 mg/kg oral once a day
[9] = cornea, 10 mg/kg oral once a day

B1: SodA2: variant Mn-SOD of Bacillus amyloliquefaciens GF423 sodA, Asn73 and Asn136 replaced with Asp, SEQ ID NO: 4; given orally shellac-coated, mixed with dextrin (protein, listed as Bacillus amyloliquefaciens)
chain: MAYKLPELPYAYDALEPHIDKETMTIHHTKHHNTYVTNLNKAIEGSALAEKSVDELVADLNAVPEDIRTAVRDDGGGHANHSLFWTLLSPNGGGEPTGELAEEIKSTFGSFDQFKEKFAAAAAGRFGSGWAWLVVDDGKLEITSTPNQDSPLSEGKTPVLGLDVWEHAYYLNYQNRRPDYISAFWNVVNWDEVARLYSEAK
modifications: shellac coating; dextrin mixture
[1]; conjunctiva
  MDA efficacy as compared with 0.05% CsA: superior
[1]; cornea, lacrimal gland
  MDA efficacy as compared with 0.05% CsA: similar
[1]; [4]
  MDA concentration, Conjunctiva: 21.5 ± 9.26 pmol/mL
[1]; [5]
  MDA concentration, Conjunctiva: 19.0 ± 7.17 pmol/mL
[1]; [6]
  MDA concentration, Conjunctiva: 16.3 ± 9.12 pmol/mL
[1]; cornea, conjunctiva and lacrimal gland, CsA and oral SodA2 groups
  MDA concentration as compared with the EDE and vehicle groups: decreased
[1]; [7]
  MDA concentration, Cornea: 22.7 ± 13.8 pmol/mL
[1]; [8]
  MDA concentration, Cornea: 20.2 ± 14.0 pmol/mL
[1]; [9]
  MDA concentration, Cornea: 18.5 ± 10.6 pmol/mL
[1]; lacrimal gland, 2.5 mg/kg oral once a day
  MDA concentration, Lacrimal gland: 22.6 ± 7.72 pmol/mL
[1]; lacrimal gland, 5 mg/kg oral once a day
  MDA concentration, Lacrimal gland: 18.8 ± 11.6 pmol/mL
[1]; lacrimal gland, 10 mg/kg oral once a day
  MDA concentration, Lacrimal gland: 22.5 ± 11.4 pmol/mL
[2]; [4]
  proportion of CD4+IFN-γ+T cells: 21.00±0.63%
[2]; [5]
  proportion of CD4+IFN-γ+T cells: 22.87±2.47%
[2]; [6]
  proportion of CD4+IFN-γ+T cells: 25.83±0.27%
[2]; cornea and conjunctiva, CsA and oral SodA2 groups
  proportion of CD4+IFN-γ+T cells as compared with the EDE and vehicle groups: significant decrease
[2]; cornea, 2.5 mg/kg oral
  proportion of CD4+IFN-γ+T cells as compared with the 0.05% CsA group: significantly lower
[2]; [7]
  proportion of CD4+IFN-γ+T cells: 21.18±0.15%
[2]; [8]
  proportion of CD4+IFN-γ+T cells: 23.87±0.17%
[2]; [9]
  proportion of CD4+IFN-γ+T cells: 30.24±1.33%
[3]; 5 mg/kg and 10 mg/kg oral
  tear film break-up time as compared with the 0.05% CsA group: similar
[3]; before drug administration, 2.5 mg/kg oral group
  tear film break-up time: 1.44 ± 0.15 s
[3]; before drug administration, 5 mg/kg oral group
  tear film break-up time: 1.42 ± 0.16 s
[3]; before drug administration, 10 mg/kg oral group
  tear film break-up time: 1.41 ± 0.25 s
[3]; day 5 of administration, 2.5 mg/kg oral once a day
  tear film break-up time: 1.23 ± 0.2 s
[3]; day 5 of administration, 5 mg/kg oral once a day
  tear film break-up time: 1.31 ± 0.3 s
[3]; day 5 of administration, 10 mg/kg oral once a day
  tear film break-up time: 1.28 ± 0.3 s
[3]; day 10 of administration, 2.5 mg/kg oral once a day
  tear film break-up time: 1.21 ± 0.3 s
[3]; day 10 of administration, 5 mg/kg oral once a day
  tear film break-up time: 1.28 ± 0.3 s
[3]; day 10 of administration, 10 mg/kg oral once a day
  tear film break-up time: 1.3 ± 0.3 s
[3]; days 5 and 10, 0.05% CsA eye drop, SodA2 2.5, 5 and 10 mg/kg oral
  tear film break-up time as compared with the EDE and vehicle groups: significant increase
